# Source: patent US20050085420A1, “Method of modulating apoptosis and compositions thereof” (priority 2003, published 2005)
# T1: BAK-X complex (Mus musculus, UniProt O08734+Q60930)
# T1 construct: isolation of mitochondria (50 μg) from wild-type (wt) mouse embryonic fibroblasts (MEFs); endogenous in cells; host or cells: mitochondria from wt MEFs
# T1 sequence (O08734 2-209 limits assumed): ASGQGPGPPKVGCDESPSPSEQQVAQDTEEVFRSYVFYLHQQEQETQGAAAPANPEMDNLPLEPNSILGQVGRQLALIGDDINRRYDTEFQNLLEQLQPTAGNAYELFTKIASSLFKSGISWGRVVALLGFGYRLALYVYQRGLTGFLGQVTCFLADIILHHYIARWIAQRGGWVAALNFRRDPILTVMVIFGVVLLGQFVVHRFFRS
# T1 sequence (Q60930 1-295): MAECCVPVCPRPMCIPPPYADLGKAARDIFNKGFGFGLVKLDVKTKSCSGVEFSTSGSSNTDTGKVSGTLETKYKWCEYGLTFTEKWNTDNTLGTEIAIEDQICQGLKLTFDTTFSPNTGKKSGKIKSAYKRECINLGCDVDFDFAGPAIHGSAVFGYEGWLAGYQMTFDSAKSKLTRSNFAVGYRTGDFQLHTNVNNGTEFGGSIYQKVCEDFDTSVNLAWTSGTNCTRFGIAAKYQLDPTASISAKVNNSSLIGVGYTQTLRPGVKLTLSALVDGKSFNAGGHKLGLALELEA
# T2: VDAC2 (Mus musculus, UniProt Q60930)
# T2 construct: expressed in transfected cells; host or cells: vdac1 -/-, vdac3 -/- mouse fibroblasts; wt or vdac2 -/- MEFs; Bax, Bak doubly deficient MEFs (retrovirus pMIG)
# T2 sequence (Q60930 1-295): T1 sequence (Q60930 1-295)
# B1: BAD: BH3-only BCL-2 family member, retrovirally expressed (protein, UniProt Q61337 1-204, looked up)
# Bcl2-associated agonist of …: MGTPKQPSLAPAHALGLRKSDPGIRSLGSDAGGRRWRPAAQSMFQIPEFEPSEQEDASATDRGLGPSLTEDQPGPYLAPGLLGSNIHQQGRAATNSHHGGAGAMETRSRHSSYPAGTEEDEGMEEELSPFRGRSRSAPPNLWAAQRYGRELRRMSDEFEGSFKGLPRPKSAGTATQMRQSAGWTRIIQSWWDRNLGKGGSTPSQ
# B2: BIM: BH3-only BCL-2 family member, retrovirally expressed (protein, UniProt O54918 1-196, looked up)
# Bcl-2-like protein 11: MAKQPSDVSSECDREGGQLQPAERPPQLRPGAPTSLQTEPQGNPDGEGDRCPHGSPQGPLAPPASPGPFATRSPLFIFVRRSSLLSRSSSGYFSFDTDRSPAPMSCDKSTQTPSPPCQAFNHYLSAMASIRQSQEEPEDLRPEIRIAQELRRIGDEFNETYTRRVFANDYREAEDHPQMVILQLLRFIFRLVWRRH
# B3: BIM-EL: BH3-only molecule BIM-EL (protein)
# chain: B2 Bcl-2-like protein 11
# B4: mIII.1: mutant tBID with BH3 mutation mIII.1, still capable of binding BAK (protein)
# chain: GSQASRSFNQGRIEPDSESQEEIIHNIARHLAQIGDEAAHNIQPTLVRQLAAQFMNGSLSEEDKRNCLAKALDEVKTAFPRDMENDKAMLIMTMLLAKKVASHAPSLLRDVFHTTVNFINQNLFSYVRNLVRNEMD
# B5: VDAC1: murine VDAC1 isoform, retrovirally expressed (protein)
# chain: AVPPTYADLGKSARDVFTKGYGFGLIKLDLKTKSENGLEFTSSGSANTETTKVNGSLETKYRWTEYGLTFTEKWNTDNTLGTEITVEDQLARGLKLTFDSSFSPNTGKKNAKIKTGYKREHINLGCDVDFDIAGPSIRGALVLGYEGWLAGYQMNFETSKSRVTQSNFAVGYKTDEFQLHTNVNDGTEFGGSIYQKVNKKLETAVNLAWTAGNSNTRFGIAAKYQVDPDACFSAKVNNSSLIGLGYTQTLKPGIKLTLSALLDGKNVNAGGHKLGLGLEFQA
# Legend:
# [1] = test system: BAK-X complex; assay: DSS cross-linking of BAK-X complex in FL5.12 cells treated with death stimuli; type: cell-based; settings: TNFα plus cyclohexamide 5 hours, etoposide (VP16) 24 hours, 10 mM DSS
# Method: FIG. 1B is an illustration depicting the treatment of FL5.12 cells with either TNFα plus cyclohexamide (CHX) for 5 hours (lane 3), etoposide (VP16) for 24 hours (lane 4), or deprived of IL-3 for 18 hours (lane 5), followed by incubation with 10 mM DSS. The BAK-X complex was detected in whole cell lysates by an immunoblot developed with anti-BAK antibody.
# Protein crosslinkers were used to search for a candidate protein that interacts with BAK at the mitochondria in viable cells. A ˜60 kD mobility-shifted complex immunoreactive with an antibody (Ab) to BAK was detected after treatment of purified mitochondria (FIG. 1A) or viable whole cells (FIG. 1B) with the crosslinker disuccinimidyl suberate (DSS). This presumed complex between BAK and a candidate ˜35 kD interacting protein was designated “BAK-X.” The ˜60 kD BAK-X complex was distinct in size as compared to BAK homo-oligomers detected by bismaleimidohexane (BMH) crosslinking (FIG. 1A). The same sized BAK complex was detected in multiple cell lines and in normal liver prior to death stimuli (FIG. 1C). The BAK-X complex was lost when mitochondria were treated with tBID (FIG. 1A, C) or cells were treated with death stimuli including TNFα, etoposide, or withdrawal of survival factor (FIG. 1B). Expression of BH3-only members BAD, BIM, or tBID killed cells and diminished the amount of BAK-X complex (FIG. 1D). […]
# [2] = test system: wt MEFs; assay: Cell killing by expression of BH3-only members; type: cell-based, mouse; settings: retroviral expression
# [3] = molecular target: T1, BAK-X complex; assay: BAK-X complex after retroviral transduction of BH3-only members in wt MEFs; type: cell-based; settings: 24 hours following retroviral transduction, DSS
# Method: FIG. 1D is a photograph depicting isolated mitochondria from wt MEFs, in which the isolated mitochondria were treated with DSS 24 hours following retroviral transduction of tBID, BIM, or BAD. The BAK-X complex was detected by an immunoblot developed with an anti-BAK antibody.
# Murine vdac1, vdac2, N-terminal HA-tagged vdac2, N-terminal-HA tagged Bax or Bak, as well as wild type and mutant Bak (mBH1, W122A, G123E, R124A; mBH3, L75E) were cloned into the retroviral expression vector MSCV-IRES-GFP (pMIG). PcDNA3-tBID (wt and mutants) was described previously M. C. Wei et al., Genes Dev 14, 2060-71. (2000). Generation of amphotropic retroviruses and retroviral infection were described previously E. H. Cheng et al., Mol Cell 8, 705-11. (2001).
# Protein crosslinkers were used to search for a candidate protein that interacts with BAK at the mitochondria in viable cells. […] Wei et al., Genes Dev 14, 2060-71. (2000).
# [4] = molecular target: T2, VDAC2; assay: Anti-HA immunoprecipitation of HA-tagged VDAC2 with BH3-only molecules; type: binding
# Text: Murine vdac1, vdac2, N-terminal HA-tagged vdac2, N-terminal-HA tagged Bax or Bak, as well as wild type and mutant Bak (mBH1, W122A, G123E, R124A; mBH3, L75E) were cloned into the retroviral expression vector MSCV-IRES-GFP (pMIG). PcDNA3-tBID (wt and mutants) was described previously M. C. Wei et al., Genes Dev 14, 2060-71. (2000). Generation of amphotropic retroviruses and retroviral infection were described previously E. H. Cheng et al., Mol Cell 8, 705-11. (2001). Retroviral expression of each indicated protein was confirmed by immunoblot. […]
# The strength of association between BIM-EL and VDAC2 was compared to the strength of the association, if any, between BIM-EL and BAK or BAX. Mitochondria isolated from Bax, Bak doubly deficient MEFs transduced with retrovirus expressing N-terminal HA-tagged BAX, BAK, or VDAC2 were solubilized in 1% CHAPS or 0.2% NP-40 buffer, followed by anti-HA immunoprecipitation. The immunoprecipitates were analyzed by an immunoblot developed with anti-BIM. […] These findings indicate that BH3-only competition for VDAC2 frees BAK, which, in the absence of its specific inhibitor VDAC2, is prone to auto-activating homo-oligomerization. […]
# [5] = molecular target: T1, BAK-X complex; assay: DSS cross-linking of BAK-X complex in isolated mitochondria, anti-BAK immunoblot; type: biochemical; settings: liver mitochondria 50 μg, 5 μl in vitro transcribed-translated mutant tBID, 30° C. 30 min
# Method: FIG. 1A is an illustration depicting isolation of mitochondria (50 μg) from wild-type (wt) mouse embryonic fibroblasts (MEFs). The isolated mitochondria were incubated with recombinant tBID protein (50 ng) at 30° C. for 30 min, followed by treatment with the cross-linkers disuccinimidyl suberate (DSS) (10 mM) or bismaleimidohexane (BMH) (10 mM) at room temperature for 30 minutes. Higher order BAK complexes were identified by immunoblot developed with an anti-BAK antibody.
# FIG. 1C is an illustration depicting treatment of mitochondria (50 μg) isolated from mouse liver, Bal17, Jurkat, and FL5.12 cells with 50 ng tBID protein at 30° C. for 30 min, followed by DSS cross-linking. The BAK-X complex was detected by an immunoblot developed with anti-BAK antibody.
# FIG. 1E is a photograph depicting isolated liver mitochondria (50 μg) which were incubated with 5 μl of in vitro transcribed-translated wt or mutant tBID at 30° C. for 30 min, followed by DSS cross-linking. The BAK-X complex was detected by an immunoblot developed with anti-BAK antibody. […]
# Protein crosslinkers were used to search for a candidate protein that interacts with BAK at the mitochondria in viable cells. A ˜60 kD mobility-shifted complex immunoreactive with an antibody (Ab) to BAK was detected after treatment of purified mitochondria (FIG. 1A) or viable whole cells (FIG. 1B) with the crosslinker disuccinimidyl suberate (DSS). […]
# [6] = test system: Bak -/- MEFs; assay: Annexin-V cell death after retroviral expression of VDAC1 or VDAC2 in Bak -/- MEFs; type: cell-based, mouse; settings: Bak -/- cells, retroviral expression, 1.2 μM staurosporine or 10 μg/ml etoposide, Annexin-V
# Method: (§1) FIG. 3A are two graphs illustrating Bax -/- or Bak -/- MEFs at 2 days following retroviral expression of VDAC1, VDAC2, or GFP (MIG vector control), wherein the Bax -/- or Bak -/- MEFs were treated with 1.2 μM staurosporine (STS). Cell death was quantitated by flow cytometric detection of Annexin-V staining at indicated time points. Values shown are mean ±1 SD of three independent experiments.
# (§2) FIG. 3B is a histogram depicting Bax -/- or Bak -/- MEFs at 2 days following retroviral expression of VDAC2 or GFP (MIG vector control), wherein the Bax -/- or Bak -/- MEFs were infected with tBID-expressing retrovirus. Cell death was quantitated by flow cytometric detection of Annexin-V staining at 24 hr. Values shown are mean ±1 SD of three independent experiments.
# (§3) FIG. 6 are two graphs that depict Bax -/- or Bak -/- MEFs at 2 days following retroviral expression of VDAC1, VDAC2, or GFP (MIG vector control), wherein the Bax -/- or Bak -/- MEFs were treated with 10 μg/ml etoposide. Cell death was quantitated by flow cytometric detection of Annexin-V staining at indicated time points. Values shown are mean ±1 SD of three independent experiments.
# (§4) Previous studies have shown that cells doubly deficient for BAX and BAK are resistant to intrinsic death stimuli, whereas cells singly deficient for BAX or BAK are still susceptible (M. C. Wei et al., Science 292, 727-30. (2001)). As VDAC2 interacts with BAK but not BAX, the ability of VDAC2 to modulate apoptosis mediated by BAK or BAX was tested. According to one hypothesis, VDAC2 might function as an inhibitor of BAK or VDAC2 itself might function as a proapoptotic factor once released from BAK. To address these alternatives VDAC 1 or VDAC2 was expressed in Bax -/- or Bak -/- singly deficient mouse embryonic fibroblasts (MEFs) followed by treatment with staurosporine or etoposide. […] Expression of VDAC2 inhibited tBID-induced apoptosis of Bax -/- cells but not Bak -/- cells, further supporting a selective role for VDAC2 in negatively regulating BAK-dependent apoptosis (FIG. 3B).
# [7] = test system: Bax -/- MEFs; assay: Annexin-V cell death after retroviral expression of VDAC1 or VDAC2 in Bax -/- MEFs; type: cell-based, mouse; settings: Bax -/- cells, retroviral expression, 1.2 μM staurosporine or 10 μg/ml etoposide, Annexin-V
# Method: as §1, §2, §3, §4
molecule,measurement,setting,value
COc1cc([C@@H]2c3cc4c(cc3[C@@H](O[C@@H]3O[C@@H]5CO[C@@H](C)O[C@H]5[C@H](O)[C@H]3O)[C@H]3COC(=O)[C@H]23)OCO4)cc(OC)c1O [etoposide],BAK-X complex when cells were treated with death stimuli,[1],lost
TNFα,BAK-X complex when cells were treated with death stimuli,[1],lost
B1,cell killing on expression,[2],killed cells
same,amount of BAK-X complex,[3],diminished
B2,cell killing on expression,[2],killed cells
same,amount of BAK-X complex,[3],diminished
B3,strength of association with VDAC2 compared to BAX or BAK,"[4]; Bax, Bak doubly deficient MEFs with HA-tagged BAX, BAK or VDAC2, 1% CHAPS or 0.2% NP-40",associate more strongly with VDAC2 than BAX or BAK
same,interaction with HA-tagged VDAC2 (co-immunoprecipitation),"[4]; mitochondria, anti-HA immunoprecipitation, 1% CHAPS (or 0.2% NP40)",strong interaction
B4,dissociation of the BAK-X complex by mutant tBID,[5],caused dissociation
B5,apoptosis after staurosporine or etoposide,[6],no substantial effect
same,apoptosis after staurosporine or etoposide,[7],no substantial effect
